What all share (assay type): cell-based
One test concerns JNK. As to the kind of experiment: Phospho-Jun immunoblot in HEK293T cells expressing Fzd3-mCherry. The note with it: Wnt5a added. The text has this:
Vgl2 antagonizes Dvl1's feedback inhibition of Fzd3 mediated Wnt/PCP Signaling. To elucidate how core PCP components function cell autonomously, we first explored how Dvl1, Vgl2 and Fzd3 interact with each other. It is known that Dvl is a central cytoplamsic molecule in the activation of Wnt-PCP signaling. In non-canonical signaling, Fzd is thought recruit Dvl to the plasma membrane and Dvl then subsequently activates the downstream signaling, such as Jun N terminal kinases (JNK), Rac1 and RhoA. […] However, upon co-expression of Fzd3 and Dvl1, we found a surprising Wnt5a-dependent down regulation of p-Jun level (FIG. 17A, lanes 5-7, quantified in FIG. 17B), uncovering a novel feedback inhibition mechanism in PCP signaling. With 30 minutes of Wnt5a addition p-Jun signal is essentially gone in Fzd3 and Dvl1 co expressing cells, (FIG. 17A lane 7).
Surface biotinylation and immunopreciptiation. […] For the membrane immunoprecipitation, 600 ug of protein extracts were incubated overnight and retrieved by NeutrAvidin-coated Agarose beads (Pierce), the bound fraction was boiled and loaded on SDS-PAGE gel and analyzed by western blot analysis. […]

The next test addresses T1, Fzd3 (Mus musculus, UniProt Q61086).
T1 construct: expressed in transfected cells; host or cells: HEK293T
T1 sequence (Q61086 23-666): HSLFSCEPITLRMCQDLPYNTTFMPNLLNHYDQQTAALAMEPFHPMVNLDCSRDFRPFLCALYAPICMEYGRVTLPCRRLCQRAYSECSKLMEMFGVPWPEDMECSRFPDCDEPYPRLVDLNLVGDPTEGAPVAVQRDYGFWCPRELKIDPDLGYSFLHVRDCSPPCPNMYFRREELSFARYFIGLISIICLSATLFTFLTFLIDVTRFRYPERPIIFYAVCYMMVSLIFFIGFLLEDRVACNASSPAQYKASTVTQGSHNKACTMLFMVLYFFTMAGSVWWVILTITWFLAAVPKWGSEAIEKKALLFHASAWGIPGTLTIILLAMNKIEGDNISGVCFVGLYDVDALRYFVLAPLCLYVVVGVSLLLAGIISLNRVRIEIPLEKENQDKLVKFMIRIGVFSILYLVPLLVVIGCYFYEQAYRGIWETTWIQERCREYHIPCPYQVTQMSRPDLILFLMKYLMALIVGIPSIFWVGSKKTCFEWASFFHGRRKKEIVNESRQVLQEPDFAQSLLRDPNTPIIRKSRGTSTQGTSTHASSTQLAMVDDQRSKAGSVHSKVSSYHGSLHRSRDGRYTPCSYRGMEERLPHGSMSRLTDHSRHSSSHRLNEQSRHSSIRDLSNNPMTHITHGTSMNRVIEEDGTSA
As to the kind of experiment: Surface biotinylation and avidin immunoprecipitation of Fzd3 in HEK293T cells. The text has this:
Dvl and Vgl have antagonistic functions on Fzd3 phosphorylation. […] We transfected Fzd3-mCherry in HEK293T cells then surface biotinylated and immunoprecipitated (IP) the surface molecules with strepavidin-conjugated beads to obtain membrane-localized proteins. […] We tested whether these two Fzd3 bands represent phosphorylation states of the Frizzled3 protein, one being phosphorylated/hyperphosphorylated Fzd3 (p-Fzd3) and the other non-phosphorylated Fzd3. […] Phosphorylation of Fzds has been shown previously in Xenopus oocytes
It has been proposed that Frizzled internalization is necessary for PCP signaling and phenotypes (Gagliardi et al., 2008; Yu et al., 2007). However, it has never been directly tested whether the cell surface level of Fzd, the Wnt-PCP receptor, changes upon Wnt addition. By using our surface biotinylation and immunoprecipitation with avidin, we show here, 15 minutes after Wnt addition, cell surface level of Fzd3-EGFP is diminished (FIG. 18C, Avidin IP, lane 3 anti-EGFP IB). […] This Fzd3 receptor oscillation from and to the membrane appeared to be a Wnt-Fzd specific effect because a non-Wnt binding receptor, such as the Insulin receptor stayed the same throughout the Wnt stimulation (FIG. 18C, Avidin IP, anti-Insulin Rβ IB). The Wnt-dependent Fzd3 oscillation is quantified in FIG. 18D (cross symboled line). […] In addition, PCP components appeared to effect this Wnt dependent oscillation of Fzd3 to and from the membrane. When Dvl1 is over expressed with Fzd3, we found within 30 minutes Fzd3 is unable to be internalized (FIG. 25B, lanes 5-7 and line). However, upon the introduction of Vangl2 into the transfection mix, Fzd3 oscillation is resumed (FIG. 25B, lanes 8-10 and circle symboled line).
Surface biotinylation and immunopreciptiation. 30 hours after transfection with the indicated constructs into HEK293T cells (FuGene, Roche), followed by 8-hour incubation in Optimem and subsequent bath application of recombinant Wnt5a (R&D Systems), surface proteins were subsequently labeled on ice with 1 mg/ml of Sulfo-NHS-LC-Biotin reagent (Pierce). The cell lysates were collect over a period of 30 minutes on ice in the following lysis buffer: 20 mM Tris pH7.6, 150 mM NaCl, 1% Triton, 0.1% SDS, 2.5 mM EDTA, 2.5 mM EGTA, protease Inhibitors (Roche). For the membrane immunoprecipitation, 600 ug of protein extracts were incubated overnight and retrieved by NeutrAvidin-coated Agarose beads (Pierce), the bound fraction was boiled and loaded on SDS-PAGE gel and analyzed by western blot analysis. To visualize the input amount 20 ug of total lysate was loaded, and for the Avidin IPs the total amount was loaded for western blot analysis. The following primary antibodies were used for the immunoblots: α-Frizzled3 (Wang et al., 2006), α-Vangl2 (Santa Cruz), α-mCherry/DsRed (Clontech), α-Jun (Cell Signaling), α-phospho-Jun (Cell Signaling), α-JNK (Cell Signaling), α-phospho-JNK (Cell Signaling), α-Flag (Sigma), α-GAPDH (Chemicon), α-Insulin Rβ (Santa Cruz).

In a further test the test system is β-catenin. The test can be described thus: β-catenin immunostaining in commissural axon growth cones. The note with it: bath application; LiCl 2 mM. The source says:
To understand how atypical PKC/Par pathway regulates axon guidance, we set out to determine the subcellular localization of aPKC, their substrates and downstream cellular effectors. […] Thus, our high-resolution confocal imaging detects a tendency of β-catenin being concentrated to one side of the growth cone (FIG. 9A). It is possible that there is low level of Wnt proteins in the culture (many neurons express Wnts). […] Therefore, it is also possible that intrinsic aPKC signaling can create chirality within the growth cone with out extrinsic signals. Such intrinsic polarity may then robustly regulate cellular morphology upon directional instructions from the environment such as a Wnt gradient. It is well known that GSK3β phosphorylates β-catenin, which then leads to proteosome-mediated degradation of β-catenin. And it is also known that GSK3β is phosphorylated and inhibited by PKCζ^(1,2). Therefore, inhibiting GSK3β or the proteosome activity generally should increase β-catenin level throughout the growth cone, canceling the asymmetry. […] We are now testing the hypothesis that Wnt proteins may locally activate PKCζ, which then inhibits GSK3β and locally stabilizes β-catenin, which is part of the asymmetric cellular mechanism leading to directional choice of a growth cone. We examine the localization of β-catenin in post-crossing commissural axon growth cones in the “post-crossing” assay and “open-book” assays.

B1: Wnt5a: recombinant Wnt5a protein (R&D Systems) (protein, UniProt P41221 62-380, looked up)
Protein Wnt-5a: IIGAQPLCSQLAGLSQGQKKLCHLYQDHMQYIGEGAKTGIKECQYQFRHRRWNCSTVDNTSVFGRVMQIGSRETAFTYAVSAAGVVNAMSRACREGELSTCGCSRAARPKDLPRDWLWGGCGDNIDYGYRFAKEFVDARERERIHAKGSYESARILMNLHNNEAGRRTVYNLADVACKCHGVSGSCSLKTCWLQLADFRKVGDALKEKYDSAAAMRLNSRGKLVQVNSRFNSPTTQDLVYIDPSPDYCVRNESTGSLGTQGRLCNKTSEGMDGCELMCCGRGYDQFKTVQTERCHCKFHWCCYVKCKKCTEIVDQFVCK
As for B1, in the test on JNK, the p-Jun level entry was “increased”. Moreover, the “time of Fzd3-EGFP internalization” value is 15 minute and two hour in the test with Fzd3 (high concentration (200 ng/ml), batch #1); 15 min and 60 min with Fzd3 (high concentration, batch #2); 30 min in the test with Fzd3 (low concentration (100 ng/ml), batch #1). In the test with Fzd3 (upon the addition of Wnt5a), the “cell surface levels of Fzd3” value is reported as “reduction of cell surface levels of Fzd3”. In the test on β-catenin, the “β-catenin level and asymmetry in the growth cone” value is “increased the levels of β-catenin throughout the growth cone”.

The record behind these values is US20110065645A1, “Compositions and Methods for Modulating Neuron Degeneration and Neuron Guidance” (The Regents of the University of California, priority 2009, published 2011).
